Laboratory results reported in patent US6613536B1, “Synthetic peptides and pharmaceutical compositions comprising them for the treatment of systemic lupus erythematosus” (Yeda Research and Development Co. Ltd., priority 1995, dated 2003).

Assays:
SJL/J and BALB/c mice = experiment: Anti-nuclear extract (NE) antibodies in sera of immunized mice (ELISA); format: in vivo, mouse
Method: Five groups of mice were immunized according to Example 2, and their sera were tested for the presence of anti-NE antibodies.
ELISA was utilized to test the presence of the anti-NE antibodies in the sera of the mice, as follows: Plates (Nunc) were coated with 5 μg/ml of HeLa cells NE for 90 min. Thereafter plates were washed and blocked, and ELISA was continued the next day, as described in Example 2 for anti-DNA antibodies.

[1] = target: T1, MHC class II products on splenic antigen-presenting cells (APC) (Mus musculus, UniProt P01921+P04228); experiment: Inhibition of peptide binding to APC by anti-Ia mAb; parameters: concentration or dose not given beside the values; settings: BALB/c, H-2 d
T1 construct: Splenic adherent cells (10^6/100 μl/tube) isolated from BALB/c, SJL, C3H.SW or C57BL/6 mice; from tissue; host or cells: mouse spleen adherent cells (BALB/c, SJL, C3H.SW, C57BL/6)
T1 sequence (P04228 24-256): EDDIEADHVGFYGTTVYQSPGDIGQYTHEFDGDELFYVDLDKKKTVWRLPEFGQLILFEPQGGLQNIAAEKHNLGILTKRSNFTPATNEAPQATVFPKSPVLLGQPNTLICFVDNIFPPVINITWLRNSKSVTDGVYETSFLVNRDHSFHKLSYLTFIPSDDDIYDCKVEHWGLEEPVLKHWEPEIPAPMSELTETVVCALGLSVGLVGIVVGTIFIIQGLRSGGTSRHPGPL
T1 sequence (P01921 28-265): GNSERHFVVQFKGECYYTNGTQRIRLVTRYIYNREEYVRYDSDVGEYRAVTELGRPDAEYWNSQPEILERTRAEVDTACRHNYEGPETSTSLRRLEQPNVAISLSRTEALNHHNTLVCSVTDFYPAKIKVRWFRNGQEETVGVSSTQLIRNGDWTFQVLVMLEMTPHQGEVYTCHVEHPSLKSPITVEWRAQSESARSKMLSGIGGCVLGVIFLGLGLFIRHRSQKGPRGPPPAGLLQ
Method: (§1) Spleen cells suspended in RPMI 1640 medium containing 10% FCS were incubated in Petri dishes for 60 min at 37° C. Thereafter, non-adherent cells were removed, the plates were washed, and the adherent cells were collected from the plates using a rubber policeman (Costar, Mass., USA). These cells (1×10^6/100 μl/tube) were incubated with the biotinylated peptides in PBS containing 0.1% BSA (high purity grade, Amresco, Ohio, USA) for 16 hr at 37° C., followed by incubation with phycoerythrin (PE)-streptavidin (Jackson ImmunoResearch) for 30 min at 4° C. Thereafter the samples were incubated with biotinylated anti-streptavidin (1:60, Vector Laboratories, Burlingame, Calif.) and for an additional period with PE-streptavidin, all for 30 min at 4° C. The cells were washed twice with cold PBS/BSA solution after each incubation. Thereafter, cells were analyzed by flow cytometry using the FACSort cytometer and CELLQuest software (Beckton-Dickinson, Mountain View, Calif.). […]
(§2) Binding of the CDR-based peptides Ia and IIIa to APC was determined as described in Materials and Methods herein and the results are shown in Table 2. […] The results are shown in Table 3: Inhibition of binding was specific and ranged from 60% to 100%.

[2] = target: T2, MHC class II products on splenic antigen-presenting cells (APC) (Mus musculus, UniProt P14434+P14483); experiment: as above; parameters: concentration or dose not given beside the values
T2 construct: Splenic adherent cells (10^6/100 μl/tube) isolated from BALB/c, SJL, C3H.SW or C57BL/6 mice; from tissue; host or cells: mouse spleen adherent cells (BALB/c, SJL, C3H.SW, C57BL/6)
T2 sequence (P14434 24-256): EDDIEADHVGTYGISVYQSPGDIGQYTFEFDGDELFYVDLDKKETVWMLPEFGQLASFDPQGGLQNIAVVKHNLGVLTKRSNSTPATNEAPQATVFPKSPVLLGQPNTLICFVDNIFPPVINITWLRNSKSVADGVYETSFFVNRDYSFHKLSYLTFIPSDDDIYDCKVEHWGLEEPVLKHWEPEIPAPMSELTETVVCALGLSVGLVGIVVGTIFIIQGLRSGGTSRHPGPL
T2 sequence (P14483 28-265): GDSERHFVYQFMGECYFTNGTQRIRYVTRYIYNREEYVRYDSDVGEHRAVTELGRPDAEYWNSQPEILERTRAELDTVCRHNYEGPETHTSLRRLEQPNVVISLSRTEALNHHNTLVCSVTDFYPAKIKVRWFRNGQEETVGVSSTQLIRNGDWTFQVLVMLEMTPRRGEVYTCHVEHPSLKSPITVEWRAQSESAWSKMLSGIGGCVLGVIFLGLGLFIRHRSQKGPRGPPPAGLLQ
Method: as §1, §2

[3] = target: T3, MHC class II products on splenic antigen-presenting cells (APC) (Mus musculus, UniProt P06345+P14437); experiment: as above; parameters: concentration or dose not given beside the values; settings: SJL, H-2 s
T3 construct: Splenic adherent cells (10^6/100 μl/tube) isolated from BALB/c, SJL, C3H.SW or C57BL/6 mice; from tissue; host or cells: mouse spleen adherent cells (BALB/c, SJL, C3H.SW, C57BL/6)
T3 sequence (P14437 1-233): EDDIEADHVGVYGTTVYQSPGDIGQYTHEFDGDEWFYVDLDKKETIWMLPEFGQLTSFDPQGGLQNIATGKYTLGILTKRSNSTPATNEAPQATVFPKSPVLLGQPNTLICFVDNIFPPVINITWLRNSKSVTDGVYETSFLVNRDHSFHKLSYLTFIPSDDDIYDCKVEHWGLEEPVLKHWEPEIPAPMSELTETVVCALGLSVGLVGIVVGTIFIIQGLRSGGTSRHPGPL
T3 sequence (P06345 28-263): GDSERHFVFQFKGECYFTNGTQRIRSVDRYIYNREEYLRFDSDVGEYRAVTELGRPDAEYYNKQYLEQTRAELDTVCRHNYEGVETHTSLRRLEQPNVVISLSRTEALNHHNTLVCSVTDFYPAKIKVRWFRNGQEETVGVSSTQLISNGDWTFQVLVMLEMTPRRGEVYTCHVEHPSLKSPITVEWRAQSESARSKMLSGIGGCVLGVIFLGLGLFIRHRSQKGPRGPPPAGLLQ
Method: as §1, §2

[4] = BALB/c mice immunized as in Example 2
[5] = SJL/J mice immunized as in Example 2
[6] = C3H.SW, H-2 b, mAb anti I-A^b (34-5-3)
[7] = C3H.SW, H-2 b, mAb anti I-A^d (MKD6)
[8] = C57BL/6, H-2 b, mAb anti I-A^b (34-5-3)
[9] = C57BL/6, H-2 b, mAb anti I-A^d (MKD6)

| % inhibition of binding to APC ([1]; mAb anti I-A^b (34-5-3)) | % inhibition of binding to APC ([1]; mAb anti I-A^d (MKD6)) | % inhibition of binding to APC [2, 6] | % inhibition of binding to APC [2, 7] | % inhibition of binding to APC [2, 8] | % inhibition of binding to APC [2, 9] | % inhibition of binding to APC ([3]; mAb anti I-A^d (MKD6)) | % inhibition of binding to APC ([3]; mAb anti I-A^s (10.3.6.2)) | Substance | anti-NE antibodies in sera (SJL/J and BALB/c mice; [4]) | anti-NE antibodies in sera (SJL/J and BALB/c mice; [5]) |
| --- | --- | --- | --- | --- | --- | --- | --- | --- | --- | --- |
| 0% | 76.7% | 60% | 0% | 82% | 0% | 0% | 100% | TGYYMQWVKQSPEKSLEWIG [peptide Ia] | high levels of anti-NE antibodies | lower levels of anti-NE antibodies |
| 0% | 100% | 84.4% | 25% | 59.3% | 0% | 0% | 92.8% | YYYCARFLWEPYAMDYWGQGS (YYCARFLWEPYAMDYWGQGS) [peptide IIIa, based on the CDR3 region of the VH chain of mAb 5G12] | very low level of anti-NE antibodies | high level of anti-NE antibodies |
